Experimental data published in the supplement of paper PMC11908140.

B1: library; numbered along this chain (parent)
chain: MRKPRAAVGSGHRKQAASQEGRQKHAKNNSQAKPSACDGLARQPEEVVLQASVSSYHLFRDVAEVTAFRGSLLSWYDQEKRDLPWRRRAEDEMDLDRRAYAVWVSEVMLQQTQVATVINYYTGWMQKWPTLQDLASASLEEVNQLWAGLGYYSRGRRLQEGARKVVEELGGHMPRTAETLQQLLPGVGRYTAGAIASIAFGQATGVVDGNVARVLCRVRAIGADPSSTLVSQQLWGLAQQLVDPARPGDFNQAAMELGATVCTPQRPLCSQCPVESLCRARQRVEQEQLLASGSLSGSPDVEECAPNTGQCHLCLPPSEPWDQTLGVVNFPRKASRKPPREESSATCVLEQPGALGAQILLVQRPNSGLLAGLWEFPSVTWEPSEQLQRKALLQELQRWAGPLPATHLRHLGEVVHTFSHIKLTYQVYGLALEGQTPVTTVPPGARWLTQEEFHTAAVSTAMKKVFRVYQGQQPGTCMGSKRSQVSSPCSRKKPRMGQQVLDNFFRSHISTDAHSLNSAAQ

Variants of: B1
Experiment: 8OG:A repair function score (normalized; synonymous = 0, nonsense = -1) (normalized log-likelihood score); higher = more repair activity (WT-like)
Settings: with 8OG:A DNA repair reporter (GFP) in HEK-293 MUTYH KO cells
Outline: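 Per-tile Rosace fitness scores were converted to a normalized repair function score anchored on synonymous and nonsense distributions. That scale puts synonymous medians at 0 and nonsense medians at -1. Variants with starting counts under 300 counts per million were discarded. Input came from sorting viable mCherry+ MUTYH knockout HEK-293 cells, carrying lentiviral MUTYH cDNA NNN codon-scan libraries in 10 pg/ml doxycycline and an 8OG:A GFP repair reporter, into GFP+ and GFP− bins at 72 h, three replicates per tile, followed by tile amplicon sequencing.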
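Further: cells sorted at 72 h after reporter transfection.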

Compared with MRKPRAAVGSGHRKQAASQEGRQKHAKNNSQAKPSACDGLARQPEEVVLQASVSSYHLFRDVAEVTAFRGSLLSWYDQEKRDLPWRRRAEDEMDLDRRAYAVWVSEVMLQQTQVATVINYYTGWMQKWPTLQDLASASLEEVNQLWAGLGYYSRGRRLQEGARKVVEELGGHMPRTAETLQQLLPGVGRYTAGAIASIAFGQCTGVVDGNVARVLCRVRAIGADPSSTLVSQQLWGLAQQLVDPARPGDFNQAAMELGATVCTPQRPLCSQCPVESLCRARQRVEQEQLLASGSLSGSPDVEECAPNTGQCHLCLPPSEPWDQTLGVVNFPRKASRKPPREESSATCVLEQPGALGAQILLVQRPNSGLLAGLWEFPSVTWEPSEQLQRKALLQELQRWAGPLPATHLRHLGEVVHTFSHIKLTYQVYGLALEGQTPVTTVPPGARWLTQEEFHTAAVSTAMKKVFRVYQGQQPGTCMGSKRSQVSSPCSRKKPRMGQQVLDNFFRSHISTDAHSLNSAAQ [A203C], MRKPRAAVGSGHRKQAASQEGRQKHAKNNSQAKPSACDGLARQPEEVVLQASVSSYHLFRDVAEVTAFRGSLLSWYDQEKRDLPWRRRAEDEMDLDRRAYAVWVSEVMLQQTQVATVINYYTGWMQKWPTLQDLASASLEEVNQLWAGLGYYSRGRRLQEGARKVVEELGGHMPRTAETLQQLLPGVGRYTAGAIASIAFGYATGVVDGNVARVLCRVRAIGADPSSTLVSQQLWGLAQQLVDPARPGDFNQAAMELGATVCTPQRPLCSQCPVESLCRARQRVEQEQLLASGSLSGSPDVEECAPNTGQCHLCLPPSEPWDQTLGVVNFPRKASRKPPREESSATCVLEQPGALGAQILLVQRPNSGLLAGLWEFPSVTWEPSEQLQRKALLQELQRWAGPLPATHLRHLGEVVHTFSHIKLTYQVYGLALEGQTPVTTVPPGARWLTQEEFHTAAVSTAMKKVFRVYQGQQPGTCMGSKRSQVSSPCSRKKPRMGQQVLDNFFRSHISTDAHSLNSAAQ [Q202Y] is lower in “8OG:A repair function score” value: -0.101 for the first, -0.329 for the second.

Compared with MRKPRAAVGSGHRKQAASQEGRQKHAKNNSQAKPSACDGLARQPEEVVLQASVSSYHLFRDVAEVTAFRGSLLSWYDQEKRDLPWRRRAEDEMDLDRRAYAVWVSEVMLQQTQVATVINYYTGWMQKWPTLQDLASASLEEVNQLWAGLGYYSRGRRLQEGARKVVEELGGHMPRTAETLQQLLPGVGRYTAGAIASIAFGMATGVVDGNVARVLCRVRAIGADPSSTLVSQQLWGLAQQLVDPARPGDFNQAAMELGATVCTPQRPLCSQCPVESLCRARQRVEQEQLLASGSLSGSPDVEECAPNTGQCHLCLPPSEPWDQTLGVVNFPRKASRKPPREESSATCVLEQPGALGAQILLVQRPNSGLLAGLWEFPSVTWEPSEQLQRKALLQELQRWAGPLPATHLRHLGEVVHTFSHIKLTYQVYGLALEGQTPVTTVPPGARWLTQEEFHTAAVSTAMKKVFRVYQGQQPGTCMGSKRSQVSSPCSRKKPRMGQQVLDNFFRSHISTDAHSLNSAAQ [Q202M], MRKPRAAVGSGHRKQAASQEGRQKHAKNNSQAKPSACDGLARQPEEVVLQASVSSYHLFRDVAEVTAFRGSLLSWYDQEKRDLPWRRRAEDEMDLDRRAYAVWVSEVMLQQTQVATVINYYTGWMQKWPTLQDLASASLEEVNQLWAGLGYYSRGRRLQEGARKVVEELGGHMPRTAETLQQLLPGVGRYTAGAIASIAFGTATGVVDGNVARVLCRVRAIGADPSSTLVSQQLWGLAQQLVDPARPGDFNQAAMELGATVCTPQRPLCSQCPVESLCRARQRVEQEQLLASGSLSGSPDVEECAPNTGQCHLCLPPSEPWDQTLGVVNFPRKASRKPPREESSATCVLEQPGALGAQILLVQRPNSGLLAGLWEFPSVTWEPSEQLQRKALLQELQRWAGPLPATHLRHLGEVVHTFSHIKLTYQVYGLALEGQTPVTTVPPGARWLTQEEFHTAAVSTAMKKVFRVYQGQQPGTCMGSKRSQVSSPCSRKKPRMGQQVLDNFFRSHISTDAHSLNSAAQ [Q202T] is higher in “8OG:A repair function score” value: -0.234 for the first, -0.198 for the second.

Going from MRKPRAAVGSGHRKQAASQEGRQKHAKNNSQAKPSACDGLARQPEEVVLQASVSSYHLFRDVAEVTAFRGSLLSWYDQEKRDLPWRRRAEDEMDLDRRAYAVWVSEVMLQQTQVATVINYYTGWMQKWPTLQDLASASLEEVNQLWAGLGYYSRGRRLQEGARKVVEELGGHMPRTAETLQQLLPGVGRYTAGAIASIAFGWATGVVDGNVARVLCRVRAIGADPSSTLVSQQLWGLAQQLVDPARPGDFNQAAMELGATVCTPQRPLCSQCPVESLCRARQRVEQEQLLASGSLSGSPDVEECAPNTGQCHLCLPPSEPWDQTLGVVNFPRKASRKPPREESSATCVLEQPGALGAQILLVQRPNSGLLAGLWEFPSVTWEPSEQLQRKALLQELQRWAGPLPATHLRHLGEVVHTFSHIKLTYQVYGLALEGQTPVTTVPPGARWLTQEEFHTAAVSTAMKKVFRVYQGQQPGTCMGSKRSQVSSPCSRKKPRMGQQVLDNFFRSHISTDAHSLNSAAQ [Q202W] to MRKPRAAVGSGHRKQAASQEGRQKHAKNNSQAKPSACDGLARQPEEVVLQASVSSYHLFRDVAEVTAFRGSLLSWYDQEKRDLPWRRRAEDEMDLDRRAYAVWVSEVMLQQTQVATVINYYTGWMQKWPTLQDLASASLEEVNQLWAGLGYYSRGRRLQEGARKVVEELGGHMPRTAETLQQLLPGVGRYTAGAIASIAFGPATGVVDGNVARVLCRVRAIGADPSSTLVSQQLWGLAQQLVDPARPGDFNQAAMELGATVCTPQRPLCSQCPVESLCRARQRVEQEQLLASGSLSGSPDVEECAPNTGQCHLCLPPSEPWDQTLGVVNFPRKASRKPPREESSATCVLEQPGALGAQILLVQRPNSGLLAGLWEFPSVTWEPSEQLQRKALLQELQRWAGPLPATHLRHLGEVVHTFSHIKLTYQVYGLALEGQTPVTTVPPGARWLTQEEFHTAAVSTAMKKVFRVYQGQQPGTCMGSKRSQVSSPCSRKKPRMGQQVLDNFFRSHISTDAHSLNSAAQ [Q202P], the “8OG:A repair function score” value falls from -0.586 to -0.931.

First: MRKPRAAVGSGHRKQAASQEGRQKHAKNNSQAKPSACDGLARQPEEVVLQASVSSYHLFRDVAEVTAFRGSLLSWYDQEKRDLPWRRRAEDEMDLDRRAYAVWVSEVMLQQTQVATVINYYTGWMQKWPTLQDLASASLEEVNQLWAGLGYYSRGRRLQEGARKVVEELGGHMPRTAETLQQLLPGVGRYTAGAIASIAFGKATGVVDGNVARVLCRVRAIGADPSSTLVSQQLWGLAQQLVDPARPGDFNQAAMELGATVCTPQRPLCSQCPVESLCRARQRVEQEQLLASGSLSGSPDVEECAPNTGQCHLCLPPSEPWDQTLGVVNFPRKASRKPPREESSATCVLEQPGALGAQILLVQRPNSGLLAGLWEFPSVTWEPSEQLQRKALLQELQRWAGPLPATHLRHLGEVVHTFSHIKLTYQVYGLALEGQTPVTTVPPGARWLTQEEFHTAAVSTAMKKVFRVYQGQQPGTCMGSKRSQVSSPCSRKKPRMGQQVLDNFFRSHISTDAHSLNSAAQ [Q202K]
Second: MRKPRAAVGSGHRKQAASQEGRQKHAKNNSQAKPSACDGLARQPEEVVLQASVSSYHLFRDVAEVTAFRGSLLSWYDQEKRDLPWRRRAEDEMDLDRRAYAVWVSEVMLQQTQVATVINYYTGWMQKWPTLQDLASASLEEVNQLWAGLGYYSRGRRLQEGARKVVEELGGHMPRTAETLQQLLPGVGRYTAGAIASIAFGLATGVVDGNVARVLCRVRAIGADPSSTLVSQQLWGLAQQLVDPARPGDFNQAAMELGATVCTPQRPLCSQCPVESLCRARQRVEQEQLLASGSLSGSPDVEECAPNTGQCHLCLPPSEPWDQTLGVVNFPRKASRKPPREESSATCVLEQPGALGAQILLVQRPNSGLLAGLWEFPSVTWEPSEQLQRKALLQELQRWAGPLPATHLRHLGEVVHTFSHIKLTYQVYGLALEGQTPVTTVPPGARWLTQEEFHTAAVSTAMKKVFRVYQGQQPGTCMGSKRSQVSSPCSRKKPRMGQQVLDNFFRSHISTDAHSLNSAAQ [Q202L]
The “8OG:A repair function score” value of the first is higher: 0.0342 for the first, -0.163 for the second.

Going from MRKPRAAVGSGHRKQAASQEGRQKHAKNNSQAKPSACDGLARQPEEVVLQASVSSYHLFRDVAEVTAFRGSLLSWYDQEKRDLPWRRRAEDEMDLDRRAYAVWVSEVMLQQTQVATVINYYTGWMQKWPTLQDLASASLEEVNQLWAGLGYYSRGRRLQEGARKVVEELGGHMPRTAETLQQLLPGVGRYTAGAIASIAFGVATGVVDGNVARVLCRVRAIGADPSSTLVSQQLWGLAQQLVDPARPGDFNQAAMELGATVCTPQRPLCSQCPVESLCRARQRVEQEQLLASGSLSGSPDVEECAPNTGQCHLCLPPSEPWDQTLGVVNFPRKASRKPPREESSATCVLEQPGALGAQILLVQRPNSGLLAGLWEFPSVTWEPSEQLQRKALLQELQRWAGPLPATHLRHLGEVVHTFSHIKLTYQVYGLALEGQTPVTTVPPGARWLTQEEFHTAAVSTAMKKVFRVYQGQQPGTCMGSKRSQVSSPCSRKKPRMGQQVLDNFFRSHISTDAHSLNSAAQ [Q202V] to MRKPRAAVGSGHRKQAASQEGRQKHAKNNSQAKPSACDGLARQPEEVVLQASVSSYHLFRDVAEVTAFRGSLLSWYDQEKRDLPWRRRAEDEMDLDRRAYAVWVSEVMLQQTQVATVINYYTGWMQKWPTLQDLASASLEEVNQLWAGLGYYSRGRRLQEGARKVVEELGGHMPRTAETLQQLLPGVGRYTAGAIASIAFGSATGVVDGNVARVLCRVRAIGADPSSTLVSQQLWGLAQQLVDPARPGDFNQAAMELGATVCTPQRPLCSQCPVESLCRARQRVEQEQLLASGSLSGSPDVEECAPNTGQCHLCLPPSEPWDQTLGVVNFPRKASRKPPREESSATCVLEQPGALGAQILLVQRPNSGLLAGLWEFPSVTWEPSEQLQRKALLQELQRWAGPLPATHLRHLGEVVHTFSHIKLTYQVYGLALEGQTPVTTVPPGARWLTQEEFHTAAVSTAMKKVFRVYQGQQPGTCMGSKRSQVSSPCSRKKPRMGQQVLDNFFRSHISTDAHSLNSAAQ [Q202S], the “8OG:A repair function score” value falls from -0.0323 to -0.0817.

Going from MRKPRAAVGSGHRKQAASQEGRQKHAKNNSQAKPSACDGLARQPEEVVLQASVSSYHLFRDVAEVTAFRGSLLSWYDQEKRDLPWRRRAEDEMDLDRRAYAVWVSEVMLQQTQVATVINYYTGWMQKWPTLQDLASASLEEVNQLWAGLGYYSRGRRLQEGARKVVEELGGHMPRTAETLQQLLPGVGRYTAGAIASIAFGNATGVVDGNVARVLCRVRAIGADPSSTLVSQQLWGLAQQLVDPARPGDFNQAAMELGATVCTPQRPLCSQCPVESLCRARQRVEQEQLLASGSLSGSPDVEECAPNTGQCHLCLPPSEPWDQTLGVVNFPRKASRKPPREESSATCVLEQPGALGAQILLVQRPNSGLLAGLWEFPSVTWEPSEQLQRKALLQELQRWAGPLPATHLRHLGEVVHTFSHIKLTYQVYGLALEGQTPVTTVPPGARWLTQEEFHTAAVSTAMKKVFRVYQGQQPGTCMGSKRSQVSSPCSRKKPRMGQQVLDNFFRSHISTDAHSLNSAAQ [Q202N] to MRKPRAAVGSGHRKQAASQEGRQKHAKNNSQAKPSACDGLARQPEEVVLQASVSSYHLFRDVAEVTAFRGSLLSWYDQEKRDLPWRRRAEDEMDLDRRAYAVWVSEVMLQQTQVATVINYYTGWMQKWPTLQDLASASLEEVNQLWAGLGYYSRGRRLQEGARKVVEELGGHMPRTAETLQQLLPGVGRYTAGAIASIAFGRATGVVDGNVARVLCRVRAIGADPSSTLVSQQLWGLAQQLVDPARPGDFNQAAMELGATVCTPQRPLCSQCPVESLCRARQRVEQEQLLASGSLSGSPDVEECAPNTGQCHLCLPPSEPWDQTLGVVNFPRKASRKPPREESSATCVLEQPGALGAQILLVQRPNSGLLAGLWEFPSVTWEPSEQLQRKALLQELQRWAGPLPATHLRHLGEVVHTFSHIKLTYQVYGLALEGQTPVTTVPPGARWLTQEEFHTAAVSTAMKKVFRVYQGQQPGTCMGSKRSQVSSPCSRKKPRMGQQVLDNFFRSHISTDAHSLNSAAQ [Q202R], the “8OG:A repair function score” value rises from -0.274 to -0.0857.
